{"source": "patent US7815907B2", "about": "“Antibodies to insulin-like growth factor I receptor” (Amgen Fremont Inc., priority 2001, dated 2010)", "key": {"A431 tumors": {"system": "A431 tumors", "experiment": "Growth inhibition of epidermoid carcinoma cell tumors", "type": "in vivo, nude mice", "procedure": "Tumors were induced in nude mice essentially as described in Example IX except that A431 cells (ATCC CRL 1555) were used. A431 cells are human epidermoid carcinoma cells that overexpress EGFR. Mice with established subcutaneous tumors of approximately 250 mm^3 were treated on days 1, 8, 15, 22 and 29 with 500 μg 2.13.2 antibody (i.p.) or were treated once daily for 27 days with 10 mg/kg CP-358,774 given orally (p.o.), either as single agents or in combination, as described in Example IX. CP-358,774 is described in U.S. Pat. No. 5,747,498 and Moyer et al., Cancer Research 57: 4838-4848 (1997), herein incorporated by reference."}, "IGF-IR [1]": {"biological_target": "T1, IGF-IR (Homo sapiens, UniProt P08069)", "experiment": "Species crossreactivity by immunoprecipitation/Western blot", "type": "binding", "set-up": "on cells from a variety of animals; endogenous in cells", "conditions": "immunoprecipitation, antibody 1 μg/ml", "procedure": "To perform immunoprecipitation experiments, we plated cells in DMEM high glucose media supplemented with L-glutamine (0.29 mg/ml), 10% heat-inactivated FBS, and 500 μg/ml each of geneticin, penicillin and streptomycin to 50% confluence in T25 flasks. We then added 100 μl of an antibody of the invention in Hank's buffered saline solution (HBSS; Gibco BRL) at a concentration of 1 μg/ml. We incubated the plates for 30 minutes at 37° C. in an incubator and then stimulated the cells with IGF-I at 100 ng/ml for 10 minutes at room temperature. We lysed the cells in RIPA buffer (Harlow and Lane, supra) and immunoprecipitated IGF-IR with 2 μg of pan-specific SC-713 anti-IGF-IR antibody (Santa Cruz) plus protein A agarose beads for 1 hour at 4° C. We pelleted the beads and wash three times with PBS/T (PBS+0.1% Tween-20) and then boiled the beads in 40 μl Laemmli buffer containing 5% βME.\nThe samples prepared as described above were then analyzed by Western blot. We loaded 12 μl of each sample per lane on 4-10% gradient Novex™ gels run with 1×MES buffer (Novex™). Gels were run at 150V for 1 hour or at 200V for approximately 30 minutes. We then transferred the gel to a membrane in Novex™ transfer buffer with 10% methanol either overnight at 100 mA or for 1-1.5 hours at 250 mA. […]"}, "IGF-IR [2]": {"biological_target": "T1, IGF-IR", "experiment": "IGF-IR and IGF-IR phosphotyrosine levels in 3T3-IGF-IR tumors in vivo (ELISA)", "set-up": "expressed in transfected cells; host or cells: NIH-3T3 (mouse fibroblasts); species or system athymic (nu/nu) mice", "excerpt": "We determined whether the effects of the antibodies of the invention on IGF-IR as described in the previous examples would occur in vivo. We induced tumors in athymic mice according to published methods (V. A. Pollack et al., “Inhibition of epidermal growth factor receptor-associated tyrosine phosphorylation in human carcinomas with CP-358,774: Dynamics of receptor inhibition in situ and antitumor effects in athymic mice,” J. Pharmacol. Exp. Ther. 291:739-748 (1999). Briefly, we injected IGF-IR-transfected NIH-3T3 cells (5×10^6) subcutaneously into 3-4 week-old athymic (nu/nu) mice with 0.2 ml of Matrigel preparation. We then injected mice with an antibody of the invention intraperitoneally after established (i.e. approximately 400 mm^3) tumors formed.\nAfter 24 hours, we extracted the tumors, homogenized them and determined the level of IGF-IR. To determine IGF-IR levels, we diluted the SC-713 antibody in Blocking buffer to a final concentration of […] and added 100 μl to each well of a Reacti-Bind Goat anti-rabbit (GAR) coated plate (Pierce). We incubated the plates at room temperature for 1 hour with shaking and then washed the plates five times with wash buffer. We then weighed tumor samples that had been prepared as described above and homogenized them in lysis buffer (1 ml/100 mg). We diluted 12.5 μl of tumor extract with lysis buffer to a final volume of 100 μl and added this to each well of a 96-well plate. We incubated the plates at room temperature with shaking for 1-2 hours and then washed the plates five times with Wash buffer. We then added 100 μl HRP-PY54 or biotinylated anti-IGF-IR antibody in Blocking buffer to each well and incubated at room temperature with shaking for 30 minutes. We then washed the plates five times with wash buffer and developed the plates. […] We then quantitated the signal by shaking for 10 seconds and measuring OD450nm. […]\nTumors were induced in nude mice as described in Example VIII. […] Tumors were extracted and IGF-IR levels were measured by ELISA as described in Example VIII."}, "[3]": {"biological_target": "T2, extracellular domain of IGF-IR (Homo sapiens, UniProt P08069)", "T2 construct": "Different concentrations of the extracellular domain of IGF-IR were injected on the sensorchip", "experiment": "BIAcore affinity measurement, Protocol 1", "type": "binding", "conditions": "BIAcore 3000; antibody captured on protein-A, IGF-IR extracellular domain injected", "procedure": "We performed affinity measures of purified antibodies by surface plasmon resonance using the BIAcore 3000 instrument, following the manufacturer's protocols.\nTo perform kinetic analyses, protein-A was immobilized on the sensorchip surfaces of the BIAcore. The sensorchip was then used to capture the anti-IGF-IR antibodies of the present invention. Different concentrations of the extracellular domain of IGF-IR were injected on the sensorchip and the binding and dissociation kinetics of the interactions between the anti-IGF-IR antibodies and the extracellular domain of IGF-IR were analyzed. The data were evaluated with global fit Langmuir 1:1, using baseline drift models available on the BIAevaluation software provided by BIAcore."}, "[4]": {"conditions": "intraperitoneal injection, tumors extracted after 24 hours"}}}
{"substance": "2.13.2: human IgG2κ monoclonal antibody specific for IGF-IR from hybridoma 2.13.2 (ATCC PTA-2788)", "values": [{"measurement": "effect on effectiveness of CP-358,774", "setting": "A431 tumors; 500 μg i.p. on days 1, 8, 15, 22 and 29 with 10 mg/kg CP-358,774 p.o. daily for 27 days", "result": "enhances the effectiveness of CP-358,774"}, {"measurement": "A431 tumor growth", "setting": "A431 tumors; multiple doses, alone or in combination with CP-358,774 (FIG. 16)", "result": "inhibit A431 tumor growth"}, {"measurement": "binding to human IGF-IR", "setting": "IGF-IR [1]", "result": "able to bind"}, {"measurement": "IGF-IR receptor levels in tumors over time", "setting": "IGF-IR [2]; 125 μg by intraperitoneal injection", "result": "down-regulated"}, {"measurement": "IGF-IR phosphotyrosine (phosphorylated IGF-IR) in tumors", "setting": "IGF-IR [2]; [4]", "result": "decrease"}, {"measurement": "total IGF-IR protein in tumors", "setting": "IGF-IR [2]; [4]", "result": "decrease"}, {"measurement": "Kd", "setting": "[3]", "result": 3.5, "unit": "nM"}]}
